Reference: the DeepSol protein solubility set

test: soluble on expression in E. coli; label from the status in PepcDB or PDB records

Sequence	soluble on expression in E. coli
MPPKKVSPGITVILIDAGSNMSVKDTETGKSAFENAINAADWIVSRKLFSKDPELFSVMAYNLDPKEYKTEVGGQTFNGVQCQNEKFTPASFDHLKFITKELQQNTEMIDPNFFKGVLGAVAVLKDQIESYPNPSGITLIVLTNGLNENIRQENFDLLVEAVSESNADLMIIGIDENPEYPASRVAELAETLEGRTYTFQNVAKMLSTFQARQKSERKYNKMWDIAPGIHLPVIFALKSEKSTALLKFKNADSEGNEMVRLEQMHVETDEVAPKDEFKSPVLEEKPKFQKNFKPVENIKTMHGSEILNFLKSIINASGYNFGKSVIMMDPEYLKEKYNDHNFNEGQTGGVLKLIQFTKRANILDSYLLDASAKTVLPALNSPKSGATKATVSLIEAMLSLRVAAICRYTFHAKSHVQLIALLPHQDEETGVFYLRSVKLPFSDDMRTLKFPKFSFDEEDEDLNKPTVAQLSAVDDLIDCMQLQEDEISSLVEGGMSDPKLQMQCHFLKSLVLHPNDTFENHSNRTNQILDQIMAPKRRVEAEHPEIFQKLGREFNLQPIQKTKRERVTVEPEDLQTMISEWTEKKQNMTQPDEVDDGASQKKKKKPNAKKLTRKEEVQMDIMEDGGASRVCSKILEMISNTCKFQPNGAVTEFFTLLVNELNVIRSVFVENSKCDEFNELLKKLKDEEDFEPFAEVLSEEKSCNPIDSSEVSMSEVSVANAAEFWEED	not soluble
MPQEIPPAVKYKIYPEGAEGIDTVWERPGFKKGEIEARVKDVVILRGEPVPNSYKMLVEATFELPKKDKITQLGLVNRHGLVTRVHYASPFKGAILPGDIILQVNGTTVSFDEKQLTEHVDETTGGASLQSNVKTVKRKPTTTPKTEPVRAPHSLYPDFKVVVGKILNSKSETKITVLVARLKNRMSTSKIPNGILATQDHTIDLAILYQFKYLQLGLNVQQVDRKVVVNYTIPDSVSHCSLNIGEAIIAVDDKPINTLADNRQRFREGFEANGWIRLLVEYPNTDPIKNMVRGQLANVMRTAERPQYLLCGDVRKYFVEGIEALKNGKALAPILKEEEGPGEVGKKKSDAKVTKKDPAVGFNNTTEEFFIPAEWNSKLFVWLPPLKTKVTESASSNMPVKK	not soluble
MPQIYFSAAERRPKFVMKTGLSATEKNEVIKAAYRQIFERDITRAYSLSISDLESKVKNGDISMKEFVRRLAKSPLYQKQFYQPFINSRVIELAFRHILGRGPSSREEVQKYFSIISNGGLPALVDALVDSAEYSDYFGEETVPYLRGLEHHHHHH	soluble
MPQSLISELHTQYAQFVRKHPHAERDFSDALEDVLTDAGLTYDRVSARIKDWHSLKTKARKKNAQGAFIYPHPWDDVHDIIGVRITTLHSTEIPQIIEALADVFTVERSVDKTALTRISGSFGYGSHHLILKIDDRVKDLNNYVGMVFEVQIRTVLQHAWAEFEHDIRYKRSGDLDPQIDRAFTLAAGLIELADQQFDLIAAIQEPQKHSPNLEVDITAETLPGVIAMLVGSRFPQSRSEHYRWLEELLFAHSITTAAQLKELLNDRDIEAVRKALNYKFKPGQVRIIDDLLLYRYGTKHIEATGETGKNPRLRLPRLNERLRILNKHAPRNRSDLQQS	not soluble
MPRKQRVVTTPSPPTSDEDEDMDFGSTSQQQQQQPTRNNDGLSGFKSITEIIAEADNNIPSEQIDKDIDSFSSYSDISDWRGIPKFFPSLSSLSRRASTYENWENRFKVVDYLVSCSGALKDSVSDYVADYFEKNESGEDHSVDVELVHAVSMFVILTQRLTVQLQLYVSKSIASANQQAKRGTGRGGRQVDLDDDIVKWKDIQRHRMINCLLELLELRVDTVAGTKKKAIQYVFAPDVMEKDFLLRFLDTVVQLLEDPENMARSSQQWISHYFRILKVLSADYGMTKDVANCLFTALSHSYLEAANTFPFIEPLVTLMKENGEGSGRIYQPLRNVLQLVICRVGNLYAGERAEKPPPKAFCMMVQSLAINVHDLMLQDITHVYRLLQNQHVNVRMSTLHALADMFSSSYLSQSLCDTFASRRLKREGIFKRLLAHTNDEATNVRSKAVSLLRNIMENRRIPEEFESCGLLSIVGSRLNDKSVQVRKSAIQFLTTFLDNNRHGHDFNREMHQLKLNAKCSELRNAEEPQSKAIQGAENAFRQNLFTLTAGVRVEVYDIFRRRYRVEPERSITDILTGLFSPGSGNRLVRYYVAQENFPFRDRIPSLRERRSDDMEDDDDDTVSLEDDDMTSLVSEVVKWVVAQAEEDYVTFKVQLTQMDDDQLLENEQEARDRNNQIMQLRAQVQQLINKMSIEQELSRCVTIALRCVLNGETAEIKEGIRFLTRCKLFEITGADDAIRSMCSLVWRPSADILNELIEAAEDMFISRLDGNEKASERDSSTVENLMKAMNGVTEKDRPSVEEVIYLLAATELVHVDSDKNKVPRKRRPIEANVINKLWMIALDMSHGINSRKIDALRILYPISRSERGIAEARSRLRVVQKKLMDPELAVDALRIISILGTPTKLENEQDAYSRPLFKIHQDDSLWKSIEKLFFYEIMKADDNPDRDWFGVIRLTITTILSLSMDVNVMLPKLASHFVYRTKRISDFFLFYCDQVDDATDDTRKKMAQRRREYWALTYCRVMEKLMAFIGEVAVQLNAYIQVTIPKLHTRYVSKMVDAEKNDANIREEPVRFLSDLEKSVAQRKTIFTVPQDTTPGATSNDLHHLVSVMCDKRLFVPNKLMGRLLPIVVYGMRCKIMPTRIRHAATVAYGKMMPLSAEISAFAAPSFFSAMTKSSSILLRCNLVAACCDFAFAQPTLFELFAQSLFRMSQDESPLARESTILVLSHLMSNDMIQTRGVLSEAARCICDPTRAVRDVAQSFFKELNSRTDTIIQLLPEFLYHLSNGNERMSFKSYKTVFEFLIQLLKDKPKASADSMIDRVCIKFSNTDMNDSETPKYLLVALAKFVQNDGGLHRLQDNWRHWSKFMCHPSVAKEYRMMVEHMHSTSKNDEFKSQCVELIDNINKIESEGLRKEDVAIGSSITKNKGRAKKNPTTMSGSSRTTSRAANSRRRAPPPAQSDEDDSDSDDAPAAPRSAARRKAKKSAVADDDSDSDEFMLDD	not soluble
MPRYYEDKPEGGACAGVKEDLGACLLQSACVLQEGKSPRQCLKEGNCRALQYSFFECKRSMLDARSRFRGRKGY	not soluble
MPSADVLIIGSGIAALRVAKEICHEKNVIIITKETNRNNNTHLAQGGIAAAVATYDNPNDHFEDTLVAGCRYNNEDVVRYLVEEGPKEMKNLIENGMQFDGDETGPHLGKEGAHRKRRILHAGGDATGKNLLEHFIQEVVPHVTVVEQEMVLDFIIESEKCVGVLTRNSEGKLKRYDADYTVLASGGVGGLYAFTSNDKTITGDGLAMVYRAGGELVDLEFVQFHPTMLYAGGQCCGLVSEAVRGEGAVLINGKGQRFMMDIHDDYDLAPRDVVARAIHEQLLSGEKVYLNIGSIQNFQERFPTVSALCKKNGVDITKKRIPVVPGAHFHMGGVKTNIDGETSIPNLYAVGEVACNGVHGANRLASNSLLEGLVFGKRIGQHILTKATKDKLNDFAEKEKKFIVLNHLPTKEEIQECMMKYVGIVRTEQSLSYAKRWLSKYGVRNMILQHDALTNEEITLINMLTVCELIVVSALQREESIGGHYRSDYPHRNSAQKEIIRVKRKLQLV	not soluble
MPSPMSTLTTYSEPRGSTTYTLPAMEPSVSRLDTDMNSGLMPRYIFLTPLDSITLLASSGTLLEKPGQDIQRSSPTDSTSHSTRFIGGAPMKVATNVCFGLM	not soluble
MPSYKLSYFPVRGLAESARLLFHLAGVPFEDERVNFLDDTWEKMKGKTPMGQLPVLTVDDFEIPQSAAINRYLARKFGFAGKTPEEEAWVDAVVDQFKDFFAEFRKLVIAKRVGKSAEELEKLTAEVIKPAMDVYFKVLNGLLEKSKSGYLIGDSITFADLYIADNIQTLKKYGLLEASGEQPKLAAHLEKVYSHPNLKSYIASRPVTEI	not soluble
MPTPFDVTILGGGLAGRLCAWQLAQTGVPPARIAVVERGARDGSGSAAYVAAAMLAPLAEAAVADRFVVELGLASLTLWRDWLPMLRTPVFFQQAGTLVVWHPADRGEASLFANHVRAATPPERIAADLRAVDAEGIGTLEPALAQRFSQGLYLAGEGQLDNRAVLDALATELEALGVQLRWNTAVADPHPQALAAAGLGARLVLDCRGLGAQPQWPQLRGLRGEVARIHAPDVTLTRPVRMLHPRYPIYIAPKPGHVYVIGATEIESDDMSPVSVRSTLELLSAAYAVHPAFGEARVLELCTQCRPTLPDHRPAIRWDGAGTLSVNGLYRHGYMIAPAVAQAAVAAAHALLDGRAIDAPASAWPGLFAAPASPEPVLPLEHHHHHH	soluble
MPVAKDNQFWDALMENKVAKKLIKKHKCKAKCENIDDLANRYEVSKQEVEKVFKIFQLMDDDGSGTISSSEVAKMLNELGIDVSPKVVQAVMRSSDVSGDGQIDFEEFLAAVTSKIKLSTVKADVQLMLSKIDNNPEKVVSWGIEHLMIIFCEEPLKSCYYRLALTAGCTIICGYLWF	not soluble
MPVDKNLRDLEPGIHTDLEGRLTYGGYLRLDQLLSAQQPLSEPAHHDEMLFIIQAQTSELWLKLLAHELRAAIVHLQRDEVWQCRKVLARSKQVLRQLTEQWSVLETLTPSEYMGFRDVLGPSSGFQSLQYRYIEFLLGNKNPQMLQVFAYDPAGQARLREVLEAPSLYEEFLRYLARFGHAIPQQYQARDWTAAHVADDTLRPVFERIYENTDRYWREYSLCEDLVDVETQFQLWRFRHMRTVMRVIGFKRGTGGSSGVGFLQQALALTFFPELFDVRTSVGVDNRPPQGSADAGKRLEHHHHHH	soluble
MPVFVKLTGGSIGLQAGVQSSDVVLVFRNDRNLDNIVNGKFTLGADASVAAGPVGRNALAATDSELKAEIYSWSTARGLFAGIALDGAALQIDDSANLDVYGKGTTPRMIFEGRTAEPPSSDVIAFRDRLEEVTYTARNNLEHHHHHH	soluble
MPVITILGCRMFEDEIMHLLENDPEIEEVLVVENEDCVGIMKKMAEAGLAYTALSPEKIPEKSSETGKGLTLIVYMLELALHAIPENLKKTVYSKVELMSSCSDGILLFYGLCGNVLGKIEEDFKDLGCQVCILKEENGEIVDDCIGAVLGGRKQYLEVLKSCRGVGTFFLTPMWAVNWREMIRTSGLSQNPDDISMSKFVFDYAGYKRVARLDTGLAYEKDFDACVKEFSTLFEFEVTELEGTLHLIENCYAKTKASVFEACPRSQALEHHHHHH	soluble
MPVNATGVSFSSFGISYHKDNSFRGTIRGKNDEVVKCSMGERSIRFNVNKFSGCILETVSRQSTKDIHGWVSDERTVYPSRVINQEIDNCCLQKNAKISSEERKMVFSLVSKEFELTLDVKAAQSSINHIIIGNASFGKKMDALCDGMSRAVKNSTTDYIANVLADKFYQKHIAPGVDIVKLRNEIPGYMSRVIQG	not soluble
MPVVKSIYSSLKSFADYFSPSAKTSSQQVVILRMPGNPLELVGLVTRRTLEGLPDGFTQGDRVAVYLPMGYMIGGYTVFVPTEWVHPIQMSVEEAMRSSLIAWMARLEHHHHHH	not soluble
MPVYFTKRAFLPDGWAADVQIAVDELGDIQRISTGSSSSGCQVLSGPVLPGMPNLHSHAFQRMMSGLAEVAGDPQDSFWTWRDLMYRLVQQLTPEQVGVIARQLYIEMLKGGYTQVAEFHYLHHSPDGSPYNDIGEMTAQLSQAAQDAGIGMTLLPVLYSYAGFGAQPAQQGQSRFIQDTESYLRQQQVIRRQLANQPLQNQGLCFHSLRAVELSQMQQILHVSDKQLPVHIHIAEQQKEVNDCLAWCGQRPVAWLYGHLPVDSRWCLVHATHLDTSELVMLANSQAVAGLCPTTEANLGDGIFPGVDYIHHQGRWGIGSDSHVSLDVVEELRWLEYGQRLRDQRRNRLTCERQPAVADLLYSQALAGGRQACGRQISQLAVGYRADWLVLDGDDPYIAGTRSASLLNRWLFAGGKSQIRDVYVAGKAVIVDRYHPLQQQTAQAFLAVLKACQQEV	not soluble
